Tests used:
[1] = tested on: mitochondria from HEK293T cells; assay: TMRE membrane potential of mitochondria isolated from HEK293T cells; assay type: biochemical; conditions: 540-600 nm light, absence of succinate
Text: Stimulation of mtON with light results in polarization of the mitochondrial inner membrane. To determine whether mtON reaches the inner mitochondrial membrane in the correct orientation and to confirm the functional responsiveness of mtON, the study measured the mitochondrial membrane potential (Dym) using TMRE. The study first isolated mitochondria from HEK293T cells expressing mtON and treated them with succinate, a complex II ETC substrate, to generate a maximal mitochondrial membrane potential as a positive control (FIG. 9, panel D).
Based on this model, light stimulation of mtON results in the polarization of the mitochondrial inner membrane. To determine whether mtON reaches the inner mitochondrial membrane in the correct orientation and to confirm the functional responsiveness of mtON, the mitochondrial inner membrane potential (Δψm) was measured using tetramethylrhodamine, ethyl ester (TMRE). TMRE is a lipophilic cationic dye that accumulates in the mitochondrial matrix proportional to the mitochondrial membrane potential. First, mitochondria were isolated from HEK293T cells expressing mtON and treated them with succinate, a substrate for the ETC (complex II), to induce a maximal mitochondrial membrane potential as a positive control.

[2] = tested on: C. elegans; assay: In vivo mitochondrial membrane potential (TMRE) in aged animals; set-up: species or system Caenorhabditis elegans
Description: FIG. 8 is a composite of drawings showing that mtON restores lost membrane potential and increases lifespan. […] One-way ANOVA with Tukey's post hoc test for multiple comparisons, *p<0.05. Data are means±standard error of the mean. Panel B) mtON activation throughout adult life extends lifespan (n=?). […] Log rank Mantel Cox test for survival comparison, p=0.018.
Panel A) Representative images of day 4 adult animals exposed to 100 nM TMRE for 24 hours. Pharynx region of interest (ROI) is outlined in dotted white lines. All animals were expressing mtON through single-copy CRISPR/Cas9 insertion to the genome. Panel B) Quantification of TMRE fluorescence in mtON-expressing day 4 adult animals exposed to 100 nM TMRE for 24 hours. Whole-body fluorescence as well as pharynx ROIs were quantified. Control represents animals exposed to light but without ATR supplementation. Statistics are student's two tailed unpaired t tests. * p<0.001.
Scale bar, 250 μm. c, Quantification of relative TMRE fluorescence. One-way analysis of variance (ANOVA) with Tukey's multiple comparisons test, day 1 versus day 4, P=0.0001, day 1 versus day 10, P=0.0002, n=44, 18 and 30. Data are median±quartiles (dotted lines). d, Pharynx TMRE fluorescence normalized to mitochondrial mass in day 4 worms. […]

[3] = tested on: HEK293T cells; assay: Luciferase-based ATP assay in HEK293T cells; assay type: cell-based; conditions: 590 nm light, with or without 2-DG, vs cells in the dark
Description: (A) HEK293T cells expressing mtOn or GFP were illuminated with 590 nm light for 2 hours, followed by a luciferase-based ATP assay. (B) Same set-up as in (A), except HEK293T cells were treated with 10 mM 2-DG for 2 hours prior to illumination. (C) Activated CD8+ T cells were sorted based on GFP expression. GFP negative cells were used as the mock control. CD8+ T cells received 590 nm light for 30 minutes, followed by a luciferase-based ATP assay. All data shown as mean±SEM and analyzed by an unpaired t-test (n=4-7).
To test whether mitochondrial polarization driven by light-activated proton transport leads to enhanced ATP production (FIG. 9, panel A), the study transfected HEK293T cells and mouse CD8+ T cells with mtON, illuminated the cells (590±10 nm, 0.32 mW/mm^2 at 1 Hz), and immediately lysed them to detect ATP. 2-Deoxy-D-glucose (2-DG), a glucose analog, was used to inhibit glycolysis and thus mimic the glucose-deficient TME.
To test whether the mitochondrial polarization driven by light-activated proton transport leads to enhanced ATP production, we transfected HEK293T cells and mouse CD8+T cells with mtON, illuminated (590±10 nm, 0.32 mW/mm^2 at 1 Hz) them, and immediately lysed to detect ATP. 2-Deoxy-D-glucose (2-DG), a glucose analog, was used to inhibit glycolysis and thus mimic the glucose-deficient tumor microenvironment.

[4] = tested on: C. elegans; assay: Lifespan of mtON-expressing worms; assay type: in vivo, Caenorhabditis elegans
Text: Light treatment began at day 1 of adulthood for all experiments, a, Survival curves of mtON-expressing animals (extrachromosomal array). […] One-way ANOVA with Tukey's test; n=30 animals for day 4 conditions and 40 animals for day 10. […] The dotted arrow represents the molecular mechanisms to be investigated that link Δψm to aged physiology.
A) survival curve with the same conditions as FIG. 15B, but with light intensity (0.005 mW/cm2) below the threshold for mtON activation (0.01 mW/cm2). […] B) Survival curves of mtON-expressing animals versus mtON-expressing animals in a long-lived genetic background containing a constitutively active AMPK mutation.
Strain APW32 expresses mtON as an extrachromosomal array (mtON ext. chr. array), and strain APW273 expresses mtON in single copy through CRISPR/Cas9 genome integration (mtON CRISPR). See methods section for genotype details. Light intensity was varied to maintain temperature as best as possible, and proximal temperature readings directly adjacent to assay plates are reported to show local temperature variability from different incubators and from different light sources. All incubators were set to 20° C.

B1: mtON: fusion of the 187 N-terminal amino acids of mouse IMMT1 to the light-activated proton pump (Mac) from Leptosphaeria maculans (protein)
chain: MLRACQLSGVTVAAQSCLCGKFVLRPLRPCRRYSTSSSSGLTAGKIAGAGLLFVGGGIGGTILYAKWDSHFRESVEKTIPYSDKLFGMVLGSAPYTVPLPKKPVQSGPLKISSVSEVMKDSKLPVAQSQKTKGDTPASAASTGAAQIISAAGDTLSVPAPAVQHEDTIKTECPNTNEGKSTSETTEEPAGLIVDQFEEVLMKTSQLFPLPTATQSAQPTHVAPVPTVLPDTPIYETVGDSGSKTLWVVFVLMLIASAAFTALSWKIPVNRRLYHVITTIITLTAALSYFAMATGHGVALNKIVIRTQHDHVPDTYETVYRQVYYARYIDWAITTPLLLLDLGLLAGMSGAHIFMAIVADLIMVLTGLFAAFGSEGTPQKWGWYTIACIAYIFVVWHLVLNGGANARVKGEKLRSFFVAIGAYTLILWTAYPIVWGLADGARKIGVDGEIIAYAVLDVLAKGVFGAWLLVTHANLRESDVELNGFWANGLNREGAIRIGEDDGAR
modifications: Synthetic Complete mtON fusion protein sequence
Which results are given for B1?
mitochondrial membrane potential (TMRE) [1]: sufficient to rescue the mitochondrial membrane potential; whole-animal measures of PMF ([2]; mtON activation for 4 days into adulthood vs age-matched controls): significantly increased; age-related decline of Δψm ([2]; mtON activation, two different genetic backgrounds): reversed that decline; ATP [3]: significant increase in ATP; lifespan ([4]; CRISPR insertion, vs light control): significantly extended lifespan compared to the light control; lifespan ([4]; extrachromosomal array, +ATR+light from day 1 of adulthood): significantly extended lifespan; light intensity threshold for mtON activation ([4]; in vivo): 0.01 mW/cm2; lifespan ([4]; light below the threshold to activate mtON (0.005 mW/cm2)): not extended; lifespan ([4]; long-lived worms with constitutively active AMPK signaling): further increased lifespan; lifespan extension in presence of FCCP ([4]; mtON activation plus mitochondrial uncoupler FCCP): sensitive; lifespan ([4]; mtON activation throughout life vs control populations): significant increase in lifespan
